Laboratory results: patent US20250084142A1 (INTARCIA THERAPEUTICS, published 2025)
Starred links: 1 amine or outer side, 2 acyl side, 3 side chain; linkers in the order of their positions; H or OH if unused. Groups on a side chain read outwards from the residue. No end group written: not given here. *: point of attachment. C20 diacid = O=C(O)CCCCCCCCCCCCCCCCCCC(=O)*; γGlu = O=C(O)[C@H](CCC(=O)[*:2])N[*:1]

What was measured:
Assay in all cases: cell-based or functional assay
NPY1R = target: NPY1R
NPY5R = target: T1, NPY5R
T1 sequence (Q15761 1-445, species assumed, looked up): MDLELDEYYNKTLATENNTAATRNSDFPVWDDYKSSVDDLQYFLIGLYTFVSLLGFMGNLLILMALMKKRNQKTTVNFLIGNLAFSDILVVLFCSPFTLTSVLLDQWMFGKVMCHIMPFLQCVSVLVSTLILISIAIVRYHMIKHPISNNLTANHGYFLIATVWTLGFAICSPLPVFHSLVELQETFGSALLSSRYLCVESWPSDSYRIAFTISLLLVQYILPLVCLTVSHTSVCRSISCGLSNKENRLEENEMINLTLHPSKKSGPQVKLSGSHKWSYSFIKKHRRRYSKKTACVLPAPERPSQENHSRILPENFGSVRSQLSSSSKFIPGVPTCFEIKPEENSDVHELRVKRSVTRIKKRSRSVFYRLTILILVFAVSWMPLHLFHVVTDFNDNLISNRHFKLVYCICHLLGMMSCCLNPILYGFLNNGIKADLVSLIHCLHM

NPY2R = target: T2, NPY2R
T2 sequence (P49146 1-381, species assumed, looked up): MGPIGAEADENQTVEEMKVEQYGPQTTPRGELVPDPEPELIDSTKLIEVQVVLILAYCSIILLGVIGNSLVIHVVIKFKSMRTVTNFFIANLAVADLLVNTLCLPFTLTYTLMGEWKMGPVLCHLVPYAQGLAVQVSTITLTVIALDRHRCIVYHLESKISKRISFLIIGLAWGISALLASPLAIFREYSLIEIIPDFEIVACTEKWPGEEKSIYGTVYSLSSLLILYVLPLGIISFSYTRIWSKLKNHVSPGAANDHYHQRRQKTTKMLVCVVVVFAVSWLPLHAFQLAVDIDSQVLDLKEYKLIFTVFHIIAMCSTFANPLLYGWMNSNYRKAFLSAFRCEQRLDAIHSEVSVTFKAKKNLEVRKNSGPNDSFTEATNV

NPY1R, sequence (P25929 whole entry): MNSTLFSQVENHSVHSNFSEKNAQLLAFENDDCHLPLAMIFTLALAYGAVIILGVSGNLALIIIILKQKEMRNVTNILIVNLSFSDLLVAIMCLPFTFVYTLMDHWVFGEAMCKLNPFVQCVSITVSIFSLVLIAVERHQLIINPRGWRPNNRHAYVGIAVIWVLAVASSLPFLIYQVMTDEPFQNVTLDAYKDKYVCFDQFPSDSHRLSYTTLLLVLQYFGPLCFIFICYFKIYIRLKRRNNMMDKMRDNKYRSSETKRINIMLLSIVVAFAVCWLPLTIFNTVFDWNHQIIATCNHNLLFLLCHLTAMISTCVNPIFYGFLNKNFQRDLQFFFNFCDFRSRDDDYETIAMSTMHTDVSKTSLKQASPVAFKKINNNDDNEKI

NPY1R pEC50 (NPY1R): 9 -Log(EC50, M)
NPY5R pEC50 (NPY5R): 8.8 -Log(EC50, M)
NPY2R pEC50 (NPY2R): 10.8 -Log(EC50, M)
B1: Compound A72 (peptide)
peptide: PKPEK([γGlu-γGlu-C20 diacid])PGEDASPKEWNRYYKDLRHYLNWLTRQRF-NH2
modifications: N-terminus assumed
SMILES: CC(C)C[C@H](NC(=O)[C@H](CC(=O)O)NC(=O)[C@H](CCCCN)NC(=O)[C@H](Cc1ccc(O)cc1)NC(=O)[C@H](Cc1ccc(O)cc1)NC(=O)[C@H](CCCNC(=N)N)NC(=O)[C@H](CC(N)=O)NC(=O)[C@H](Cc1c[nH]c2ccccc12)NC(=O)[C@H](CCC(=O)O)NC(=O)[C@H](CCCCN)NC(=O)[C@@H]1CCCN1C(=O)[C@H](CO)NC(=O)[C@H](C)NC(=O)[C@H](CC(=O)O)NC(=O)[C@H](CCC(=O)O)NC(=O)CNC(=O)[C@@H]1CCCN1C(=O)[C@H](CCCCNC(=O)CC[C@H](NC(=O)CC[C@H](NC(=O)CCCCCCCCCCCCCCCCCCC(=O)O)C(=O)O)C(=O)O)NC(=O)[C@H](CCC(=O)O)NC(=O)[C@@H]1CCCN1C(=O)[C@H](CCCCN)NC(=O)[C@@H]1CCCN1)C(=O)N[C@@H](CCCNC(=N)N)C(=O)N[C@@H](Cc1c[nH]cn1)C(=O)N[C@@H](Cc1ccc(O)cc1)C(=O)N[C@@H](CC(C)C)C(=O)N[C@@H](CC(N)=O)C(=O)N[C@@H](Cc1c[nH]c2ccccc12)C(=O)N[C@@H](CC(C)C)C(=O)N[C@H](C(=O)N[C@@H](CCCNC(=N)N)C(=O)N[C@@H](CCC(N)=O)C(=O)N[C@@H](CCCNC(=N)N)C(=O)N[C@@H](Cc1ccccc1)C(N)=O)[C@@H](C)O
